Measured values published in patent publication US20230038638A1, “COMPLEMENT FACTOR I-RELATED COMPOSITIONS AND METHODS” (published 2023).
Several values for one entry are separate records, joined by “and”; a condition that tells them apart may be missing. Identical values can stand only once.

Assays:
[1] = target: T1, human C4b (human) (UniProt P0C0L4)
T1 sequence: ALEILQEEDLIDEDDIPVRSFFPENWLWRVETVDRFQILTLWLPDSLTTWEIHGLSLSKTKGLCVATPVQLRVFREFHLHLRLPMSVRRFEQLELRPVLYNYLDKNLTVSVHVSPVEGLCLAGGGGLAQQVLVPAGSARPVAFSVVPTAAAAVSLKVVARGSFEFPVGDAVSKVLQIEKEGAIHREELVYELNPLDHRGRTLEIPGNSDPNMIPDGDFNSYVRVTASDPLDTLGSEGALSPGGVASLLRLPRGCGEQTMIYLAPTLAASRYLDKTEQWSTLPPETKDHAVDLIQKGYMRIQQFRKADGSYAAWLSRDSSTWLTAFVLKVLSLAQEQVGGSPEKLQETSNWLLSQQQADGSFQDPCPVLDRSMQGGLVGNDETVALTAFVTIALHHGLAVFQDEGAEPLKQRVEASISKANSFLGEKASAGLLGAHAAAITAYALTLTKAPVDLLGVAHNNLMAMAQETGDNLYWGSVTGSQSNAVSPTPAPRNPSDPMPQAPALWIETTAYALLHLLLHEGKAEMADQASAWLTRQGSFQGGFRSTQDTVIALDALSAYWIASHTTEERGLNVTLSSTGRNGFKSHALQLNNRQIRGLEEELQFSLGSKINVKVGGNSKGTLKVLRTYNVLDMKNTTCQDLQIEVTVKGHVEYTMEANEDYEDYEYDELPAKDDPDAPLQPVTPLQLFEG

[2] = target: soluble human C3b (human) (UniProt P01024)

Row | Substance | C4b Screen Ref Fold (fold of reference) [1] | iC3b Screen Ref Fold (fold of reference) [2] | C4b Screen Ref Fold (fold of CFI-HSA wild type) [1] | iC3b Screen Ref Fold (fold of CFI-HSA wild type) [2]
1 | CFI-HSA fusion WT; GGSSGG (SEQ ID NO: 6); fH(ccp1); CR1(ccp16); fH(ccp3); fH(ccp4) (from UniProt P17927) (enzyme) | 0.59 | 0 | – | –
2 | CFI-HSA variant A405S; G406R; Y408L; Q409D (enzyme) | -0.08 | 0.13 | – | –
3 | CFI-HSA variant D425K; E457G; E461Q; N531G; P558S (enzyme) | – | – | 3.25 | 1.98
4 | CFI-HSA variant D425K; E530F; F537K; K504R; P558S (enzyme) | – | – | 0.16 | 0.09
5 | CFI-HSA variant D425K; F537K (enzyme) | – | – | 0.22 | 2.11
6 | CFI-HSA variant D425K; S507A (enzyme) | – | – | 0.01 | -0.03
7 | CFI-HSA variant D425K; Y408M; E530F; F537K; K504R (enzyme) | – | – | 0.15 | 0.02
8 | CFI-HSA variant D425K; Y408M; E530F; K504R; P558S (enzyme) | – | – | 0.49 | 1.84
9 | CFI-HSA variant D425K; Y408M; E530F; P558S (enzyme) | – | – | 0.07 | 1.53
10 | CFI-HSA variant D425K; Y408M; F537K; K504R; P558S (enzyme) | – | – | 0.08 | 1.49
11 | CFI-HSA variant E416A; E457G; E461Q; R462K; F464Y; N531G (enzyme) | – | – | 3.68 | 3.21
12 | CFI-HSA variant E457G; E461Q; N531G; S507A (enzyme) | – | – | -0.05 | -0.04
13 | CFI-HSA variant E457G; S507A (enzyme) | – | – | 0.1 | -0.02
14 | CFI-HSA variant E461A (enzyme) | 1.44 | 1.37 | – | –
15 | CFI-HSA variant E461D (enzyme) | 0.12 | 0.12 | – | –
16 | CFI-HSA variant E461G (enzyme) | 0.31 | 0.94 | – | –
17 | CFI-HSA variant E461S (enzyme) | 1.32 | 0.95 | – | –
18 | CFI-HSA variant E461Y (enzyme) | 2.38 | 0.99 | – | –

Row | Substance | C4b Screen Ref Fold (fold of reference) [1] | iC3b Screen Ref Fold (fold of reference) [2] | C4b Screen Ref Fold (fold of CFI-HSA wild type) [1] | iC3b Screen Ref Fold (fold of CFI-HSA wild type) [2]
19 | CFI-HSA variant E530F; K504R (enzyme) | – | – | 0.05 | 1.14
20 | CFI-HSA variant E530F; S507A (enzyme) | – | – | 0.13 | -0.04
21 | CFI-HSA variant E530K (enzyme) | 0.19 | 0.96 | – | –
22 | CFI-HSA variant E530Y; P558S (enzyme) | – | – | 0.43 | 1.62
23 | CFI-HSA variant F537K; P558S (enzyme) | – | – | 0.38 | 1.18
24 | CFI-HSA variant G344K (enzyme) | 0.36 | 0.16 | – | –
25 | CFI-HSA variant G344K; Y408L; N531G (enzyme) | 1.2 | 0.93 | – | –
26 | CFI-HSA variant G344R (enzyme) | 0.74 | 0.56 | – | –
27 | CFI-HSA variant G406A; Y403F (enzyme) | – | – | 1.47 | 1.15
28 | CFI-HSA variant G406D; P535A (enzyme) | 0.95 | 0.13 | – | –
29 | CFI-HSA variant G406D; Y408L; P535A (enzyme) | 0.38 | 0.23 | – | –
30 | CFI-HSA variant G469L (enzyme) | 0.04 | 0 | – | –
31 | CFI-HSA variant G469L; R456N; E457T; K458A (enzyme) | -0.07 | 0 | – | –
32 | CFI-HSA variant G469L; R456N; K458A; E461G (enzyme) | -0.03 | 0 | – | –
33 | CFI-HSA variant H383G (enzyme) | – | – | -0.02 | 0.02
34 | CFI-HSA variant I317D-R318D-R319D-K320D-R321K; Y408L; N531G; E457G; E461Q; R462K; F464Y (enzyme) | -0.02 | 0.01 | – | –
35 | CFI-HSA variant I322T (enzyme) | 0.03 | 0.01 | – | –
36 | CFI-HSA variant I389G (enzyme) | – | – | 0 | -0.03

Other lines, results leading:

Row | C4b Screen Ref Fold (fold of reference) [1] | iC3b Screen Ref Fold (fold of reference) [2] | C4b Screen Ref Fold (fold of CFI-HSA wild type) [1] | iC3b Screen Ref Fold (fold of CFI-HSA wild type) [2] | Substance
37 | 0.42 | 0 | – | – | CFI-HSA fusion WT; GGSSGG (SEQ ID NO: 6); fH(ccp1); CR1(ccp16); CR1(ccp17); fH(ccp4) (from UniProt P17927) (enzyme)
38 | 0.11 | 0.06 | – | – | CFI-HSA variant A405S; G406A; Y408L; Q409D (enzyme)
39 | – | – | 3.53 | 2.46 | CFI-HSA variant D425K; E457G; E461Q; K504R; N531G (enzyme)
40 | – | – | 0.02 | 0.13 | CFI-HSA variant D425K; E530F; F537K; K504R (enzyme)
41 | – | – | 0.12 | 2.05 | CFI-HSA variant D425K; K504R (enzyme)
42 | – | – | 0.03 | 0.07 | CFI-HSA variant D425K; Y408M; E530F; F537K (enzyme)
43 | – | – | 0.11 | 0.01 | CFI-HSA variant D425K; Y408M; E530F; F537K; K504R; P558S (enzyme)
44 | – | – | 0.07 | 0.04 | CFI-HSA variant D425K; Y408M; E530F; F537K; P558S (enzyme)
45 | 2.62 | 0.95 | – | – | CFI-HSA variant E461F (enzyme)
46 | 2.52 | 1.15 | – | – | CFI-HSA variant E461N (enzyme)
47 | -0.01 | 0.02 | – | – | CFI-HSA variant E461P (enzyme)
48 | – | – | -0.01 | -0.04 | CFI-HSA variant E461Q; S507A (enzyme)
49 | 0.8 | 0.67 | – | – | CFI-HSA variant E461W (enzyme)
50 | – | – | 0 | 0.03 | CFI-HSA variant E530F; F537K (enzyme)
51 | – | – | 0.34 and 0.16 | 1.4 and 1.38 | CFI-HSA variant E530F; P558S (enzyme)
52 | – | – | 0.11 | 1.06 | CFI-HSA variant F537K; K504R (enzyme)
53 | – | – | -0.09 | -0.04 | CFI-HSA variant F537K; S507A (enzyme)
54 | 0.73 | 1.54 | – | – | CFI-HSA variant F559L (enzyme)
55 | 3.03 | 0.98 | – | – | CFI-HSA variant G344R; Y408L; N531G (enzyme)
56 | 1.93 | 0.43 | – | – | CFI-HSA variant G344Y (enzyme)
57 | – | – | 3.17 | 0.18 | CFI-HSA variant G406A; D425K; E457G; E461Q; N531G (enzyme)
58 | 0.68 | 0.75 | – | – | CFI-HSA variant G406A; Y408L (enzyme)
59 | -0.07 | 0 | – | – | CFI-HSA variant G469L; R456N; K458A (enzyme)
60 | -0.02 | 0.01 | – | – | CFI-HSA variant G469L; R456N; K458A; E461G; F537K (enzyme)
61 | 0.16 | -0.01 | – | – | CFI-HSA variant I345G (enzyme)
62 | – | – | 0.33 | -0.03 | CFI-HSA variant I382G (enzyme)
